Reference: paper PMC7702303, “Biochemical and transcript level differences between the three human phosphofructokinases show optimisation of each isoform for specific metabolic niches” (Biochemical Journal, 2020)
Where “and” joins values, the source holds several entries; their conditions need not be identical. Equal values may be shown once.

How the values were obtained:
[1] = biological target: the molecule itself; experiment: SEC; size-exclusion chromatography of purified recombinant PFK isoforms, buffer and protein concentration not told in the main text (Supplementary Figure S2); tetramer to dimers
[2] = substrate: O=C(CO)[C@@H](O)[C@H](O)[C@H](O)COP(=O)(O)O; experiment: ALDO-TIM-G3PDH enzyme-linked kinetic assay, PFK-P; type: biochemical, human; settings: other: PFK-P; F6P titration, ATP 0.5 mM; n = 6; mean (SD); pH 7.4; 25.0 °C
Method: (§1) Recombinant human PFKs were expressed in PFK-deficient Saccharomyces cerevisiae and purified using the methods described previously, adapting earlier materials and protocols. Production of PFK intended for use in ATP titration experiments used 1 mM F6P as a tetramer stabilising agent in protein purification and storage buffers. Production of PFK intended for use in F6P titration experiments used 1 mM ATP as a tetramer stabilising agent in protein purification and storage buffers. Experimental details on the purification and characterisation procedures including figures showing SDS–PAGE gels of the highly pure PFKs used in the kinetic experiments described in this work have been recently published.
(§2) Assay buffer consisted of 50 mM TEA, 100 mM KCl, 10 mM MgCl2, 1 mM Tris(2-carboxyethyl)phosphine hydrochloride (TCEP), 10% glycerol, pH 7.4. Assay mix consisted of 5 units/ml glycerol-3-phosphate dehydrogenase (G3PDH, Sigma–Aldrich G6880), 2.5 units/ml aldolase (Sigma–Aldrich A2714), 25 units/ml triosephosphate isomerase (TIM, Sigma–Aldrich T6258), and 1.25 mM NADH. […] A SpectraMax M5 Multi-Mode Microplate Reader was used to measure A340nm at 13 s intervals for 10 min. […]
(§3) Time-dependent absorbance change was converted into rate of NADH oxidation (µM s^−1) or specific activity (µmol min^−1 mg protein^−1) using the Beer-Lambert law (molar extinction coefficient of NADH 6.22 mM^−1 cm^−1). […]

[3] = substrate: O=C(CO)[C@@H](O)[C@H](O)[C@H](O)COP(=O)(O)O; experiment: ALDO-TIM-G3PDH enzyme-linked kinetic assay, PFK-M; type: biochemical, human; settings: other: PFK-M; F6P titration, ATP 0.5 mM; n = 6; mean (SD); pH 7.4; 25.0 °C
Method: as §1, §2, §3

[4] = substrate: O=C(CO)[C@@H](O)[C@H](O)[C@H](O)COP(=O)(O)O; experiment: ALDO-TIM-G3PDH enzyme-linked kinetic assay, PFK-L; type: biochemical, human; settings: other: PFK-L; F6P titration, ATP 0.5 mM; n = 6; mean (SD); pH 7.4; 25.0 °C
Method: as §1, §2, §3

B1: human 6-phosphofructokinase-1-kinase, platelet isoform (PFK-P) (enzyme, UniProt Q01813 1-784, looked up)
chain: MDADDSRAPKGSLRKFLEHLSGAGKAIGVLTSGGDAQGMNAAVRAVVRMGIYVGAKVYFIYEGYQGMVDGGSNIAEADWESVSSILQVGGTIIGSARCQAFRTREGRLKAACNLLQRGITNLCVIGGDGSLTGANLFRKEWSGLLEELARNGQIDKEAVQKYAYLNVVGMVGSIDNDFCGTDMTIGTDSALHRIIEVVDAIMTTAQSHQRTFVLEVMGRHCGYLALVSALACGADWVFLPESPPEEGWEEQMCVKLSENRARKKRLNIIIVAEGAIDTQNKPITSEKIKELVVTQLGYDTRVTILGHVQRGGTPSAFDRILASRMGVEAVIALLEATPDTPACVVSLNGNHAVRLPLMECVQMTQDVQKAMDERRFQDAVRLRGRSFAGNLNTYKRLAIKLPDDQIPKTNCNVAVINVGAPAAGMNAAVRSAVRVGIADGHRMLAIYDGFDGFAKGQIKEIGWTDVGGWTGQGGSILGTKRVLPGKYLEEIATQMRTHSINALLIIGGFEAYLGLLELSAAREKHEEFCVPMVMVPATVSNNVPGSDFSIGADTALNTITDTCDRIKQSASGTKRRVFIIETMGGYCGYLANMGGLAAGADAAYIFEEPFDIRDLQSNVEHLTEKMKTTIQRGLVLRNESCSENYTTDFIYQLYSEEGKGVFDCRKNVLGHMQQGGAPSPFDRNFGTKISARAMEWITAKLKEARGRGKKFTTDDSICVLGISKRNVIFQPVAELKKQTDFEHRIPKEQWWLKLRPLMKILAKYKASYDVSDSGQLEHVQPWSV
notes: human phosphofructokinase, platelet isoform (PFK-P), recombinant; Active form is a tetramer in equilibrium with dimers
B1 was tested, and the “stoichiometry N” value [1] was 4 and 2 and the kcat [2] was 1.83 s⁻¹.

B2: human 6-phosphofructokinase-1-kinase, muscle isoform (PFK-M) (enzyme, UniProt P08237 1-780, looked up)
chain: MTHEEHHAAKTLGIGKAIAVLTSGGDAQGMNAAVRAVVRVGIFTGARVFFVHEGYQGLVDGGDHIKEATWESVSMMLQLGGTVIGSARCKDFREREGRLRAAYNLVKRGITNLCVIGGDGSLTGADTFRSEWSDLLSDLQKAGKITDEEATKSSYLNIVGLVGSIDNDFCGTDMTIGTDSALHRIMEIVDAITTTAQSHQRTFVLEVMGRHCGYLALVTSLSCGADWVFIPECPPDDDWEEHLCRRLSETRTRGSRLNIIIVAEGAIDKNGKPITSEDIKNLVVKRLGYDTRVTVLGHVQRGGTPSAFDRILGSRMGVEAVMALLEGTPDTPACVVSLSGNQAVRLPLMECVQVTKDVTKAMDEKKFDEALKLRGRSFMNNWEVYKLLAHVRPPVSKSGSHTVAVMNVGAPAAGMNAAVRSTVRIGLIQGNRVLVVHDGFEGLAKGQIEEAGWSYVGGWTGQGGSKLGTKRTLPKKSFEQISANITKFNIQGLVIIGGFEAYTGGLELMEGRKQFDELCIPFVVIPATVSNNVPGSDFSVGADTALNTICTTCDRIKQSAAGTKRRVFIIETMGGYCGYLATMAGLAAGADAAYIFEEPFTIRDLQANVEHLVQKMKTTVKRGLVLRNEKCNENYTTDFIFNLYSEEGKGIFDSRKNVLGHMQQGGSPTPFDRNFATKMGAKAMNWMSGKIKESYRNGRIFANTPDSGCVLGMRKRALVFQPVAELKDQTDFEHRIPKEQWWLKLRPILKILAKYEIDLDTSDHAHLEHITRKRSGEAAV
notes: human phosphofructokinase, muscle isoform (PFK-M), recombinant; Active form is a tetramer in equilibrium with dimers
For B2, the “stoichiometry N” value [1] was 4 and the kcat [3] was 8.11 s⁻¹.

B3: human 6-phosphofructokinase-1-kinase, liver isoform (PFK-L) (enzyme, UniProt P17858 1-780, looked up)
chain: MAAVDLEKLRASGAGKAIGVLTSGGDAQGMNAAVRAVTRMGIYVGAKVFLIYEGYEGLVEGGENIKQANWLSVSNIIQLGGTIIGSARCKAFTTREGRRAAAYNLVQHGITNLCVIGGDGSLTGANIFRSEWGSLLEELVAEGKISETTARTYSHLNIAGLVGSIDNDFCGTDMTIGTDSALHRIMEVIDAITTTAQSHQRTFVLEVMGRHCGYLALVSALASGADWLFIPEAPPEDGWENFMCERLGETRSRGSRLNIIIIAEGAIDRNGKPISSSYVKDLVVQRLGFDTRVTVLGHVQRGGTPSAFDRILSSKMGMEAVMALLEATPDTPACVVTLSGNQSVRLPLMECVQMTKEVQKAMDDKRFDEATQLRGGSFENNWNIYKLLAHQKPPKEKSNFSLAILNVGAPAAGMNAAVRSAVRTGISHGHTVYVVHDGFEGLAKGQVQEVGWHDVAGWLGRGGSMLGTKRTLPKGQLESIVENIRIYGIHALLVVGGFEAYEGVLQLVEARGRYEELCIVMCVIPATISNNVPGTDFSLGSDTAVNAAMESCDRIKQSASGTKRRVFIVETMGGYCGYLATVTGIAVGADAAYVFEDPFNIHDLKVNVEHMTEKMKTDIQRGLVLRNEKCHDYYTTEFLYNLYSSEGKGVFDCRTNVLGHLQQGGAPTPFDRNYGTKLGVKAMLWLSEKLREVYRKGRVFANAPDSACVIGLKKKAVAFSPVTELKKDTDFEHRMPREQWWLSLRLMLKMLAQYRISMAAYVSGELEHVTRRTLSMDKGF
notes: human phosphofructokinase, liver isoform (PFK-L), recombinant; Active form is a tetramer in equilibrium with dimers
For B3, the binding result [1] was “binds” and the kcat [4] was 5.38 s⁻¹.
